# Starred links: 1 amine or outer side, 2 acyl side, 3 side chain; linkers in the order of their positions; H or OH if unused. Positions of bridges follow the written chain, without caps; N, C: chain ends. Non-standard residues stand in square brackets, D forms with d. Primed or numbered codes have the meaning given here. SeN″ = (S)-5-(((allyloxy)carbonyl)(methyl)amino)-2-amino-2-methylpentanoic acid (stapling residue), C=CCOC(=O)N(C)CCC[C@](C)(N[*:1])C(=O)[*:2]; B5(16) = 2-amino-2-(pent-4-en-1-yl)hept-6-enoic acid = 2,2-bis(4-pentenyl)glycine (stitching residue), C=CCCCC(CCCC=C)(N[*:1])C(=O)[*:2]; B5(23) = 2-amino-2-(pent-4-en-1-yl)hept-6-enoic acid (2,2-bis(4-pentenyl)glycine), stitching residue, C=CCCCC(CCCC=C)(N[*:1])C(=O)[*:2]; B5(4) = 2,2-bis(4-pentenyl)glycine = 2-amino-2-(pent-4-en-1-yl)hept-6-enoic acid (stitching residue), C=CCCCC(CCCC=C)(N[*:1])C(=O)[*:2]; B5″ = 2,2-bis(4-pentenyl)glycine, stitching residue, C=CCCCC(CCCC=C)(N[*:1])C(=O)[*:2]; Phe(3-F) = N[C@@H](Cc1cccc(F)c1)C(=O)O; His(τ-Me) = Cn1cnc(C[C@H](N)C(=O)O)c1; Bta = N[C@@H](Cc1csc2ccccc12)C(=O)O; αAllylPro = C=CC[C@@]1(C(=O)O)CCCN1; S8 = C=CCCCCCC[C@](C)(N)C(=O)O; NMeS = CN[C@@H](CO)C(=O)O
# T1: full-length beta-Catenin (Uniprot ID P35222) (Homo sapiens (Human), UniProt P35222 1-781)
# T1 construct: also called bCat; B-Catenin
# T1 sequence: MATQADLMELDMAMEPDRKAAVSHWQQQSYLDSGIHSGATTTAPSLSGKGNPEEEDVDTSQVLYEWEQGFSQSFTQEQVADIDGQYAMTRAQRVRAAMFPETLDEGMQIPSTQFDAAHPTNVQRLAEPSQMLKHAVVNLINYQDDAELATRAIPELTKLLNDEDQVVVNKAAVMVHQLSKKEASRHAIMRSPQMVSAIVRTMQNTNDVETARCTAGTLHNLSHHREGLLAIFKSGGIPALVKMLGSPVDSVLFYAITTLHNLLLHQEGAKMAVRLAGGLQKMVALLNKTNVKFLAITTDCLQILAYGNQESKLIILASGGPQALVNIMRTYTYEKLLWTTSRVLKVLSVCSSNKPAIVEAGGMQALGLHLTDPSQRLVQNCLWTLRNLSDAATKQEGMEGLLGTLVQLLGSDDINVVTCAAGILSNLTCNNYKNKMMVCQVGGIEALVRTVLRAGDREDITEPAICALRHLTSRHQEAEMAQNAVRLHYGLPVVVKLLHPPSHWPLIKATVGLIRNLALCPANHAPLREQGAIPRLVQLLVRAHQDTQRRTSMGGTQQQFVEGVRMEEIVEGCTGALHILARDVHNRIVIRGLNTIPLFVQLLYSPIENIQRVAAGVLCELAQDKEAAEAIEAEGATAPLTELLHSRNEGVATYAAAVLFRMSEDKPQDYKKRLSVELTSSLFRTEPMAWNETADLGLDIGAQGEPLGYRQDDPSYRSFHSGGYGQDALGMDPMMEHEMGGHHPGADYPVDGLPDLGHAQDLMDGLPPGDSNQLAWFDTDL
# T2: full-length beta-Catenin (Uniprot ID P35222) (Homo sapiens (Human), UniProt P35222 2-781)
# T2 construct: also called bCat; B-Catenin
# T2 sequence: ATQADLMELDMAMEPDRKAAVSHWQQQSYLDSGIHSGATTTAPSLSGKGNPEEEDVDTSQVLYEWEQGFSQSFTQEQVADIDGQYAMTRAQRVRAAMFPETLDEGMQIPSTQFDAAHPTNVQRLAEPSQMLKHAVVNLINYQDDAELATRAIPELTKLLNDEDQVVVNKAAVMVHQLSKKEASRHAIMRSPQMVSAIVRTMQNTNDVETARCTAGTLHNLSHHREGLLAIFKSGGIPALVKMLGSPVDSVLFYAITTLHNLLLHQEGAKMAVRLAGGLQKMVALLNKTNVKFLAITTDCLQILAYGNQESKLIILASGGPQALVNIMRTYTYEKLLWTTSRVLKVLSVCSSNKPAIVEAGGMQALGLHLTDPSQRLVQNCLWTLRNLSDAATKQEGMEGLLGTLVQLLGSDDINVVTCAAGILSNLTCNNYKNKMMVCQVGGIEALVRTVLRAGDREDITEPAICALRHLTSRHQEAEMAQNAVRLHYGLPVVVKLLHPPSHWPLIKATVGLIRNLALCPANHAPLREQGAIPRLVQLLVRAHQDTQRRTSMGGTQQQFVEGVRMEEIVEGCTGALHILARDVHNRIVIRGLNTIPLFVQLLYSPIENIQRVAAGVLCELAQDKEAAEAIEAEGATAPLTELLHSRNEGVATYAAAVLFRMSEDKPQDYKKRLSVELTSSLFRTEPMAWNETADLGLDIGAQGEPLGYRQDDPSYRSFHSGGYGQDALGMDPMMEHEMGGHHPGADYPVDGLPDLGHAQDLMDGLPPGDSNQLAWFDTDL
# B1: I-757 (peptide)
# peptide: Ac-[αAllylPro]DL[B5(4)]DEAAFN[S8]F[Bta][dN]-NH2
# modifications: staple 1-4, 4-11; also: earlier eluting HPLC peak (staple isomer)
# notes: Stapled peptide; same description as I-758, earlier eluting HPLC peak (staple isomer composition); also called Ac-PL3-Asp-Leu-B5-Asp-Glu-Ala-Ala-Phe-Asn-S8-Phe-BztA-dAsn-NH2
# B2: I-758 (peptide)
# peptide: Ac-[αAllylPro]DL[B5(4)]DEAAFN[S8]F[Bta][dN]-NH2
# modifications: staple 1-4, 4-11; also: later eluting HPLC peak (staple isomer)
# notes: Stapled peptide; also called Ac-PL3-Asp-Leu-B5-Asp-Glu-Ala-Ala-Phe-Asn-S8-Phe-BztA-dAsn-NH2
# B3: I-756 (peptide)
# peptide: Ac-[αAllylPro]DL[B5(4)]DEAAFN[S8]F[Bta][dS]-NH2
# modifications: staple 1-4, 4-11
# notes: Stapled peptide; also called Ac-PL3-Asp-Leu-B5-Asp-Glu-Ala-Ala-Phe-Asn-S8-Phe-BztA-dSer-NH2
# B4: I-759 (peptide)
# peptide: Ac-[αAllylPro]DL[B5(4)]DEAAFN[S8]F[Bta][NMeS]-NH2
# modifications: staple 1-4, 4-11; also: earlier eluting HPLC peak (staple isomer)
# notes: Stapled peptide; same description as I-760, earlier eluting HPLC peak (staple isomer composition); also called Ac-PL3-Asp-Leu-B5-Asp-Glu-Ala-Ala-Phe-Asn-S8-Phe-BztA-NMeS-NH2
# B5: I-760 (peptide)
# peptide: Ac-[αAllylPro]DL[B5″]DEAAFN[S8]F[Bta][NMeS]-NH2
# modifications: staple 1-4, 4-11
# notes: Stapled peptide; also called Ac-PL3-Asp-Leu-B5-Asp-Glu-Ala-Ala-Phe-Asn-S8-Phe-BztA-NMeS-NH2
# B6: I-406 (peptide)
# peptide: Ac-[αAllylPro]DA[B5(23)]DEAAFQ[S8]F[Bta]Q-NH2
# modifications: staple 1-4, 4-11
# notes: Stapled (stitched) peptide
# B7: I-397 (peptide)
# peptide: XDAXDHAAFVXFXQ
# modifications: not fully specified; as printed: Ac-PL3-Asp-Ala-B5-Asp-His-Ala-Ala-Phe-Val-S8-3FF-BztA-Gln-NH2; N-terminal acetyl, C-terminal amide; staples PL3(1)-B5(4) and B5(4)-S8(11) by olefin metathesis
# notes: Stapled (stitched) peptide
# B8: I-398 (peptide)
# peptide: Ac-[αAllylPro]DA[B5(16)]DHAAFV[SeN″][Phe(3-F)][Bta]Q-NH2
# modifications: staple 1-4, 4-11; not fully specified; printed as Ac-PL3-Asp-Ala-B5-Asp-His-Ala-Ala-Phe-Val-SeN-3FF-BztA-Gln-NH2
# notes: Stapled (stitched) peptide
# B9: I-399 (peptide)
# peptide: XDAXDHAAFQXFXQ
# modifications: not fully specified; as printed: Ac-PL3-Asp-Ala-B5-Asp-His-Ala-Ala-Phe-Gln-S8-3FF-BztA-Gln-NH2; N-terminal acetyl, C-terminal amide; staples PL3(1)-B5(4) and B5(4)-S8(11) by olefin metathesis
# notes: Stapled (stitched) peptide
# B10: I-400 (peptide)
# peptide: Ac-[αAllylPro]DA[B5(16)]DHAAFQ[SeN″][Phe(3-F)][Bta]Q-NH2
# modifications: staple 1-4, 4-11; not fully specified; printed as Ac-PL3-Asp-Ala-B5-Asp-His-Ala-Ala-Phe-Gln-SeN-3FF-BztA-Gln-NH2
# notes: Stapled (stitched) peptide
# B11: I-403 (peptide)
# peptide: Ac-[αAllylPro]DA[B5(23)]D[His(τ-Me)]AAFV[S8][Phe(3-F)][Bta]Q-NH2
# modifications: staple 1-4, 4-11
# notes: Stapled (stitched) peptide
# B12: I-410 (peptide)
# peptide: Ac-[αAllylPro]DV[B5(23)]DEAAFQ[S8]F[Bta]Q-NH2
# modifications: staple 1-4, 4-11
# notes: Stapled (stitched) peptide
# B13: I-420 (peptide)
# peptide: Ac-[αAllylPro]DA[B5(23)]DEAAFT[S8]F[Bta]H-NH2
# modifications: staple 1-4, 4-11
# notes: Stapled (stitched) peptide
# B14: I-423 (peptide)
# peptide: Ac-[αAllylPro]DA[B5(23)]DEAAFT[S8]F[Bta]Q-NH2
# modifications: staple 1-4, 4-11
# notes: Stapled (stitched) peptide
# Molecular target: T1, full-length beta-Catenin (Uniprot ID …)
# Test: fluorescence polarization competition; full-length beta-catenin with 5FAM-TCF4(10-53) probe as competitor
# Method in brief: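 Incubate 60 minutes at 20° C. away from light, then read polarization in duplicate. Fit to 1:1 binding with hill slope.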
row,IC50,Binder
1,64 nM,B1
2,47 nM,B2
3,56 nM,B3
4,1530 nM,B4
5,608 nM,B5

# Molecular target: T2, full-length beta-Catenin (Uniprot ID …)
# Test: fluorescence polarization competition; 10 nM full-length beta-catenin + 10 nM 5FAM-TCF4(10-53) probe, peptide titrated
# Method: The plate was incubated protected from light for 60 minutes at 20° C. prior to read. Reads were performed on a CLARIOstar plate reader (BMG Labtech) in duplicate, and data were fitted to a 1:1 binding model with hill slope using an in-house script. All provided concentrations are final concentrations.
row,EC50,Binder
1,94 nM,B6
2,2230 nM,B7
3,2160 nM,B8
4,2500 nM,B9
5,3590 nM,B10
6,2130 nM,B11
7,50 nM,B12
8,128 nM,B13
9,105 nM,B14

# Source: patent US20240116985A1 (published 2024)
